The record followed here is paper doi:10.1101/2022.12.02.518933.

The assay concerns the target AF647-labeled cysteine-less BtuCD Q111C reconstituted into nanodiscs (E. coli) (UniProt P06609). Put plainly: FRET or BRET.

Numbering of substitutions follows the chain as printed. Names may count otherwise.

B1: AF546-labeled BtuF harboring the E202A mutation (natural protein)
chain: APRVITLSPANTELAFAAGITPVGVSSYSDYPPQAQKIEQVSTWQGMNLERIVALKPDLVIAWRGGNAERQVDQLASLGIKVMWVDATSIEQIANALRQLAPWSPQPDKAEQAAQSLLDQYAQLKAQYADKPKKRVFLQFGINPPFTSGKESIQNQVLEVCGGENIFKDSRVPWPQVSRAQVLARSPQAIVITGGPDQIPKIKQYWGEQLKIPVIPLTSDWFERASPRIILAAQQLCNALSQVD
modifications: Alexa Fluor 546 C5 maleimide on the cysteine appended to the C-terminus
B1 came in with a k fast (double exponential, green emission on addition of BtuCD*) of 0.124 s⁻¹ and a k slow (double exponential, green emission on addition of BtuCD*) of 0.016 s⁻¹.

B2: AlexaFluor 546 (AF546)-labeled E. coli BtuF (natural protein)
chain: B1 chain with A180E
modifications: Alexa Fluor 546 C5 maleimide on the cysteine appended to the C-terminus
In turn, B2 yielded a k fast (double exponential, with AMPPNP) of 0.108 s⁻¹; a k fast (double exponential; initial single-lobe association) of 0.158 s⁻¹; a k slow (double exponential, with AMPPNP) of 0.009 s⁻¹; a k slow (double exponential; locking) of 0.025 s⁻¹.
